The results in this text go back to patent publication US20200172896, “EVOLUTION OF BIOACTIVE SEQUENCE-DEFINED SYNTHETIC POLYMERS USING DNA-TEMPLATED POLYMERIZATION” (President and Fellows of Harvard College, published 2020).

Data set [1] concerns the target T1, PCSK9 (Homo sapiens, UniProt Q8NBP7;Q8NBP7 Q8NBP7:31-152,Q8NBP7:153-692). Kind of data set: SPR; 0.9x HBS-EP, 25 C, immobilized HFNAP. The following applies: tags: ACROBiosystems PC9-H5223; label: 3' iSp18-dual biotin. As for the experimental part: (§1) All SPR assays were performed at 25° C. on a Biacore X100 or Biacore T200 (GE Healthcare Life Sciences). Binding kinetics between enzymatically synthesized biotinylated HFNAPs and unlabeled recombinant proteins were measured using single-cycle kinetics with the Biotin CAPture kit (GE Life Sciences) using 0.9×HBS-EP buffer (GE Life Sciences) at a flow rate of 30 μL/min. The injected PCSK9 concentration ranged from 10 to 300 nM for PCSK9-A5 and its variants, or from 2 to 60 nM for PCSK9-Evo5 and its variants. The injected IL-6 concentration ranged from 10 to 300 nM.
(§2) All SPR assays were performed at 25° C. on a Biacore X100 or Biacore T200 (GE Healthcare Life Sciences). […] HBS-EP buffer (GE Life Sciences, BR100188), diluted by MilliQ water to 0.9×, was used as the bulk running buffer. Each experiment consisted of three start-up cycles followed by multiple data collection and blank cycles. […] Afterwards, four ascending concentrations of PCSK9 protein [10, 30, 100, 300 nM protein supplemented with 1 mg/ml salmon sperm DNA (Invitrogen, 15632-011) as nonspecific binding reducer for PCSK9-A5 and its variants; 2, 6, 20, 60 nM protein without salmon sperm DNA for PCSK9-Evo5 and its variants] in 0.9×HBS-EP were injected onto both flow cells in series at 30 μL/min for 150 seconds each, followed by 240 seconds of dissociation. […]

Data set [2] has as its target PCSK9 mature, lacking prodomain (Homo sapiens, UniProt Q8NBP7 Q8NBP7:153-692). Briefly: SPR; no apparent binding, 2-60 nM protein. The following applies: tags: ACROBiosystems PC9-H5226; label: 3' iSp18-dual biotin. The method, then:
All SPR assays were performed at 25° C. on a Biacore X100 or Biacore T200 (GE Healthcare Life Sciences). […] HBS-EP buffer (GE Life Sciences, BR100188), diluted by MilliQ water to 0.9×, was used as the bulk running buffer. Each experiment consisted of three start-up cycles followed by multiple data collection and blank cycles. […] Afterwards, four ascending concentrations of PCSK9 protein [10, 30, 100, 300 nM protein supplemented with 1 mg/ml salmon sperm DNA (Invitrogen, 15632-011) as nonspecific binding reducer for PCSK9-A5 and its variants; 2, 6, 20, 60 nM protein without salmon sperm DNA for PCSK9-Evo5 and its variants] in 0.9×HBS-EP were injected onto both flow cells in series at 30 μL/min for 150 seconds each, followed by 240 seconds of dissociation. Both flow cells were then regenerated with a 3:1 mixture of 8 M guanidinium chloride and 1 M NaOH following manufacturer's instructions. Blank cycles were run similarly except that 0.9×HBS-EP (containing 1 mg/ml salmon sperm DNA when PCSK9-A5 and its variants were assayed) without PCSK9 protein was injected.
A general note: SPR reads the build-up and loss of mass on a sensor chip optically.

Data set [3] addresses T1, PCSK9. Briefly: SPR; 0.9x HBS-EP, 25 C. The following applies: tags: ACROBiosystems PC9-H5223; label: biotin. The method, then:
as §1, §2

The target in data set [4] is T1, PCSK9. Briefly: SPR; two-state reaction kinetic model. The following applies: tags: ACROBiosystems PC9-H5223; label: 3' iSp18-dual biotin. The method, then:
as §1, §2

For data set [5], the target named is PCSK9 (biotinylated Avi-tagged) (UniProt Q8NBP7;Q8NBP7 Q8NBP7:31-152,Q8NBP7:153-692). Briefly: SPR; immobilized PCSK9, 0.9x HBS-EP, 25 C. The following applies: tags: biotinylated Avi-tag, ACROBiosystems PC9-H82E7.
From the text: Biotinylated PCSK9 in 0.9×HBS buffer was immobilized onto the active flow cell to ˜1000 RU. […] Kinetic parameters were fitted to double-blank-subtracted sensograms under a 1:1 binding model using BIAEvaluation software.
In data set [6] the target is T1, PCSK9. Kind of data set: inhibition; inhibition of 20 nM PCSK9 binding to immobilized LDLR by SPR; HEPES, NaCl, 0.1 mM CaCl2, pH 7.5. The following applies: tags: ACROBiosystems PC9-H5223.
Method: Binding of PCSK9 on surface-immobilized LDLR in the presence of various competing agents was measured on a Series S SA chip using 10 mM HEPES, 150 mM NaCl, 0.1 mM CaCl₂, 0.005% Tween-20, pH 7.5 as bulk buffer at a flow rate of 10 μL/min. The injected solutions contained 20 nM PCSK9 and various competing agents ranging from 2 to 200 nM.
Binding of PCSK9 on surface-immobilized LDLR in the presence of various competing agents was measured on a Series S SA chip. The bulk running buffer was 10 mM HEPES, 150 mM NaCl, 0.1 mM CaCl₂, 0.005% Tween-20, pH 7.5. […] The surface was regenerated using two consecutive one-minute injections of 50 mM HCl. Blank cycles were run similarly except that running buffer containing 1 mg/ml non-specific binding reducer without protein was injected. Response levels at the end of the injection periods from double-blank-subtracted sensograms were recorded.
Data set [7] addresses T1, PCSK9. Briefly: pulldown; unfunctionalized DNA, no evident binding. The following applies: tags: ACROBiosystems PC9-H5223.
Data set [8] deals with T1, PCSK9. Briefly: SPR; 0.9x HBS-EP, salmon sperm DNA 1 mg/ml, 25 C. The following applies: tags: ACROBiosystems PC9-H5223; label: 5' dual biotin-iSp18. As for the experimental part:
as §1, §2

T1 sequence (Q8NBP7 31-152, chain 1 of 2): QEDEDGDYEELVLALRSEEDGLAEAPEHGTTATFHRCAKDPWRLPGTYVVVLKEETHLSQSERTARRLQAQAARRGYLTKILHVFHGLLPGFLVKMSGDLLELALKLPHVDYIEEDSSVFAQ
T1 sequence (Q8NBP7 153-692, chain 2 of 2): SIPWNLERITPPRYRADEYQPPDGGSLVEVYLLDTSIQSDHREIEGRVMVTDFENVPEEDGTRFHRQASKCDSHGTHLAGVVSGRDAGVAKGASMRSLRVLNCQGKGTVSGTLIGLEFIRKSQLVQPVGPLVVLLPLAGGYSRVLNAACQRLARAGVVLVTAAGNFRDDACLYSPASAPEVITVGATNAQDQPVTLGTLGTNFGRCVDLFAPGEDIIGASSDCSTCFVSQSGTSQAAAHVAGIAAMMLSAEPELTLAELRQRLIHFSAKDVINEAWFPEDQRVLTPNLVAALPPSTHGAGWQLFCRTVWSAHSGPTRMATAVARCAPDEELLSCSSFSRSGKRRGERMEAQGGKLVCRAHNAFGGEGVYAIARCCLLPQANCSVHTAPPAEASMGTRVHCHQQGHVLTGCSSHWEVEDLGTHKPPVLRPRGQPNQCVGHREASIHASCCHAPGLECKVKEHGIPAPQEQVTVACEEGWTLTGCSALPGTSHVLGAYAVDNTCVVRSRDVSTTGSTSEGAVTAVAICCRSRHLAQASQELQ
PCSK9 (biotinylated Avi-tagged), sequence (Q8NBP7 31-152, chain 1 of 2): as the sequence (Q8NBP7 31-152, chain 1 of 2) above
PCSK9 (biotinylated Avi-tagged), sequence (Q8NBP7 153-692, chain 2 of 2): as the sequence (Q8NBP7 153-692, chain 2 of 2) above
PCSK9 mature, lacking prodomain, sequence (Q8NBP7 153-692, one chain of several): as the sequence (Q8NBP7 153-692, chain 2 of 2) above

B1: PCSK9-Evo5 (ssDNA)
DNA: TGCTACCGTTGTTTACCCTGCCACCTTCTGGAGTCCAGATGTAGGTAG
modifications: HFNAP, C5 side chain on 5' pyrimidine of codons TGC primary alcohol, TAC imidazole, CGT cyclopentyl, TGT phenol, TTA allylamine, CCC cyclopropyl, TGC primary alcohol, CAC isopentyl, CTT cyclopentyl, CTG cyclopentyl
The Kd is the constant that tells how readily two partners part at equilibrium. Read a low Kd as tighter binding. B1 registered a Kd in the data set with PCSK9 [1] of 3 nM. Besides, the binding result in data set [2] is reported as “no binding”. Take TTCTACCGTTTTTGCCCCCGGCACCTTCTGGAGTCCAGATGTAGGTAG (ssDNA, HFNAP side chains as PCSK9-A5) [PCSK9-A5Trunc]: the affinity with PCSK9 [3], expressed as Kd, was 68 nM.

B2: PCSK9-Evo5 3 side chains (ssDNA)
DNA: TGCTACCGTTGTTTACCCTGCCACCTTCTGGAGTCCAGATGTAGGTAG
modifications: only three side chains: phenol at position 9, isopentyl at position 21, cyclopentyl at position 24 (so in the source); rest unfunctionalized DNA [phenol at 9, isopentyl at 21, cyclopentyl at 24 (positions as printed); all other side chains removed; base sequence unchanged]
The molecule B2 showed a Kd with PCSK9 [3] of 3.7 nM.

B3: PCSK9-Evo5 CAC delta side chain (ssDNA)
DNA: TGCTACCGTTGTTTACCCTGCCACCTTCTGGAGTCCAGATGTAGGTAG
modifications: as PCSK9-Evo5 except CAC unmodified [side chains as PCSK9-Evo5 except CAC codon (nt 22-24) unmodified (isopentyl removed); base sequence unchanged]
As for B3, the Kd in the data set with PCSK9 [4] was about 420 nM.

Broadly, the IC50 is the concentration at which inhibition is half-maximal. For the molecule TGCTACCGTTGTTTACCCTGCCACCTTCTGGAGTCCAGATGTAGGTAG (ssDNA, side chains as PCSK9-Evo5, 3' idT) [PCSK9-Evo5-syn], the affinity in data set [5], expressed as Kd, was 6.8 nM. The molecule further gave an IC50 with PCSK9 [6] of about 9 nM.

B4: PCSK9A6-DNA (ssDNA)
DNA: CGAATCAGATTGGACCAGTTTCAACCTCTTCTGCCTTCTCCACGGCTCCTTCTGCGTTGTTCCGAGTCCAGATGTAGGTAG
As for B4, the binding result in the data set with PCSK9 [7] was “no binding”.

B5: PCSK9A1-DNA (ssDNA)
DNA: CGAATCAGATTGGACCAGCCACTATATTCTCTCTCCTACCGTTTGCCTTTGCATCACCTTCTGGAGTCCAGATGTAGGTAG
For B5, in the data set with PCSK9 [7], the binding result was “no binding”.

B6: PCSK9A4-DNA (ssDNA)
DNA: CGAATCAGATTGGACCAGCCCCAATGCTTTTCGTTTCTATCACGTCTTTAGCGGTACCTATTCGAGTCCAGATGTAGGTAG
Consider B6, for which, in the data set with PCSK9 [7], the binding result is “no binding”.

B7: PCSK9A3-DNA (ssDNA)
DNA: CGAATCAGATTGGACCAGTCTCTACAACCTCTTTCATGTCTTTAGCACTACTTATCCTGATCAGAGTCCAGATGTAGGTAG
For B7, the binding result in the data set with PCSK9 [7] is “no binding”.

B8: PCSK9-A5 (ssDNA)
DNA: CGAATCAGATTGGACCAGCCACGTTACTGATTCTTCTACCGTTTTTGCCCCCGGCACCTTCTGGAGTCCAGATGTAGGTAG
modifications: HFNAP, C5 side chain on the 5' pyrimidine of each of the 15 codons in the variable region (19-63): CCA cyclopropyl, CGT/CTT/CTG cyclopentyl, TAC imidazole, TGA/TGC primary alcohol, TTC allylamine, TTT phenol, CCC cyclopropyl, CGG/CAC isopentyl
Take B8: binding with PCSK9 [8] was put at a Kd of 98 nM.

B9: PCSK9A7-DNA (ssDNA)
DNA: CGAATCAGATTGGACCAGTCTTCCCTATTCCTCTACCGTTTGTTCTCTTACTTTCACCTTCTGGAGTCCAGATGTAGGTAG
Consider B9, for which the binding result with PCSK9 [7] is given as “no binding”.

B10: PCSK9A2-DNA (ssDNA)
DNA: CGAATCAGATTGGACCAGCAACAATGATTCTTCTACCGTTTTTGCCCTCACCTTCTGCGCTGAGAGTCCAGATGTAGGTAG
Turning to B10, the binding result in the data set with PCSK9 [7] was “no binding”.
